Source: patent publication US10100341B2, “Tailored oils produced from recombinant oleaginous microorganisms” (Corbion Biotech, Inc., priority 2011, dated 2018)

Test system: Prototheca moriformis (UTEX 1435)
Test: cDNA abundance by real-time RT-PCR under nitrogen depletion
Format: cell-based
Details: after 24 hours of culture in low nitrogen medium
Procedure: A cDNA library was generated from Prototheca moriformis (UTEX 1435) using standard techniques. The Prototheca moriformis cells were grown for 48 hours under nitrogen replete conditions. […] After about 24 hours in culture, the nitrogen supply in the media was completely depleted. The collected samples were immediately frozen using dry ice and isopropanol. Total RNA was subsequently isolated from the frozen cell pellet samples and a portion from each sample was held in reserve for RT-PCR studies. The rest of the total RNA harvested from the samples was subjected to polyA selection. Equimolar amounts of polyA selected RNA from each condition was then pooled and used to generate a cDNA library in vector pcDNA 3.0 (Invitrogen). Roughly 1200 clones were randomly picked from the resulting pooled cDNA library and subjected to sequencing on both strands. Approximately 68 different cDNAs were selected from among these 1200 sequences and used to design cDNA-specific primers for use in real-time RT-PCR studies. RNA isolated from the cell pellet samples that were held in reserve was used as substrate in the real time RT-PCR studies using the cDNA-specific primer sets generated above. This reserved RNA was converted into cDNA and used as substrate for RT-PCR for each of the 68 gene specific primer sets. […] As discussed in the specification, nitrogen depletion/limitation is a known inducer of lipogenesis in oleaginous microorganisms. Fold increase refers to the fold increase in cDNA abundance after 24 hours of culture in low nitrogen medium.

B1: Aat05-Amino acid transporter 05 promoter/5′UTR: putative nitrogen-regulated promoter/5′UTR, SEQ ID NO: 66 (nucleic acid, listed as Prototheca moriformis)
DNA: CCGAGCAGTTCATGGCCAAGTACAAGGACTAGAGACCGGAGGTCGGTAGGCTGAATGGAGCTGGCGTCGTCGTGCGCGACGTGCACGCGATGCGATACTACGACCCCACAAACGCATGCCTCCCATCTTGATGCCTTTCCGGCCATTTATACTATTTCTCATTTCGCTGTAACATCTTGAATAATAGAATTGCCCTGTGTCAAGTGGATTCCAAGAAATATTCTGTCCCAACAAAACAACCCAACCTGAAAACAACCTCAAATACCACCAGCCCTGCCCACCTGCCCAGTACACTTTTCCAATACCATCTCCCTACCTTCACGCGCAAGCGGCACCCATGCGCGACCAGGCTCGAAAGGATTTCACGACTCAGGACGAGCGAGTGGCGGCGCGACCGCCTGCCTGTTCGTCACGTGCCGTACGTCGGCGACCGCTAGAGCTTTGCCTGGCAACCCCCGGCTTCGTCAACCCGGCCAGCCAGGATCTCGACCACTCTACCGCGAAATCGCCTCAAGAAGTCGCCAAAAGTGCCGTACACCATGCTTCGCAGCGCTGTTCAAACTTGATGCCAATCTTGACAATCAGGTTGCTCGTTGGCTGCGTCCACATCGGCCGTGATTGCAGCAGGCGGGGATCGGACACGGAGGACGCGGCGTCACGCCGCGAACGCAGCCCGTAACTCTACATCAACGCGATATGTTGCGTAATCCCGCCCGGCTGCGCATTGTGACAACCCATTCGCGATGGATGGTCGGAAAATGGTGTGCCAACTGCCCTGAGGGACTCTCTCGCGAAACGGGCACGTCCCTGTATCCGAAACTGTGGCATGGCCTTGTCGACCACGCAAGCACGTGGACCCTAACACCACGAAAATAAGTAAAAAAGGTTGACATCCTCTACGAGCGAATTGTTTGCTCGACCCTTCATCGCACACTGTCATTATAATGCATCTAGCTCGGCGACAAGTTTAAAAAAGGCAGGCTGCATTATTCCATTTTGCCGTGGCGGCATGGGTGCCCATTTTATGAGGTTTGGGCTCTTGGGCAGCGACCGAGCCAGGTTGAGTCCCTCTCGCCCGTCGACAACGTTCCAAAGCCCATAAGTGGCTAATAAACAACTTGATGGTACCTGTACACTGCCAGTTCCTTCTTCCCCGGCCGAGGTTTACACGTGATGGCCATGGCTTCGCGTTTCAGGCTGACTTCCCATTCCGACTTTCCAGAGGGTCCGCGGACGCCGGGGGTTGGCTGCGTGAGGCCCACCCCTTGTTCCCCGCGTCCCGACAAACACAATTGCGTTACATAAGGGGGAAGCCGCCCCCCGTTCAGAGTGCAAACATCTTTCATTATATTTTTCAGTCGTCAGCGAAATCAAGTATGTCGCTGACAGGCATGAAGGCC
With B1 the “Fold increased (cDNA abundance)” value was 6.71.

B2: Aat02-Amino acid transporter 02 promoter/5′UTR: putative nitrogen-regulated promoter/5′UTR, SEQ ID NO: 63 (nucleic acid, listed as Prototheca moriformis)
DNA: AGAGAGCGGAGGTGGGGTTGTGAGGTGGGGTTGCTGACCAGGAGCTCGCGTCGCCGAGCGCGACTCGCACACGGTCCAGTTACCCCCCCCTCCGCCCAAACGCAAGCCTCCCATCTTGATGCCTTTCCGGCCACCTATACTATTTCTTAGTTCGCTGTAACATCCAGACCGTCCTGAATAATAACAATGCCCTGTGTCAAGTGCATTCCTAAAAAAATTCTGTCCCAACCAACAATCCCACCTGAAATACCACCAGCCCTGCCCAGTACACTCTTCCAATACCATCTCCCTACCTCCACGCGCAAGCGACCCCCATGCGCGACCAGGCTCGAAAGTGATTTATGACTTGAGACGAGCGAGTGGCGGCGCGGTCGACTGCCTTTTCATCACGTGCCGTACGTCGGCGACCGCTAGGGCTTTGCACGGCAACGCACGGCTTCGCCAACCCGACCAGCCAGGACCTCGACTACTCTACCGCGAATTCGCCTCAAGAAGTCGCCAAATGTGCCATACACCATTCCTTACAGCACTGTTCAAACTTGATGCCAATTTTGACATTCGGGTTGCTCGTTGGCTGCGCCCACATCGGCCGTGAGTGCAGCAGGCGGGATCGGACACGGAGGACGCGGCGTCACGCCCCGAACGCAGCCCGTAACTCTACATCAACACGACGTGTTGCGTAATCCCGCCCGGCTGCGCATCGTGCCAACCCATTCGCGATGGATGGTCGGAAAATGGTGTGCCAACTGCCCTGAGGGAGGCTCTCGCGAAACGGGCACGTCCCTGAAACCGAAACTGTGGCCTTGTCGTCGGCCACGCAAGCACGTGGACCCTAAACACCAAGAAAATCAGTAAACAAGGTTGACATCCTCTACGGGCGAATTGTTTGCCCAACCCTTCATCGCACACTGCCATTATAATGCATCTAGCTCGGCGACAAGTTTAGAAAAGGCAGGCTGCATTGTTCCATTTCGCCGTGGCGGCGTGGGTGCCCATTTTACGAGGTTTGGGCTCCCGGGCAGCGACCGAGCCAGGTCGAGTCCCTCTCGCCCGTCGACAATGTTGCGAACCCCACAAGCGGCTAACAACAACTTGATGGTACCTGTACACTGCCAATTCCTTCTTCCCCGGCCGAGGTTTACACGTGATGGCCATGGCTTCGCATTCAGGCCGACTTCCCATTCCGACTTTCCAGAGGGTCCGCGGACGCTGGGGGTTGGCTGCCTGAGGCCCACCCTTTGTTCCCCGCGTCCCGACAAACACAATTGCGTTACATAAGGGGGAGCCGCCCCCGTTCAGAGTGCAGAAATCTTTCACTATATTTTCCAGTCGTCAGCGAAATCAAGT
For B2, the “Fold increased (cDNA abundance)” value was 6.5.

B3: Aat03-Amino acid transporter 03 promoter/5′UTR: putative nitrogen-regulated promoter/5′UTR, SEQ ID NO: 64 (nucleic acid, listed as Prototheca moriformis)
DNA: GATGGTGGGGTGTCTGCCTTGGGCTGGGTGATGGAGGCTGGTGGTGCGCGGGTTTCCTGATGCATTCTATCTACGCAGTGTCATGGTGTCCATTCCACACACCAGTACACCCTTACACTAAGGATCCATCCCTCCTTCCCTCTTCAGGACTACATGGACCCCACGAGCTACCGACCGGGCTTTCTCAAAAACGTCAAGGTCATGTTTGACATGCGGGACGTGGTGGACGACGTGCAAGGTGCGTCCGGAGTGCGCGCAAATGAGCAAGTCGGGCAATGTGTCGGGGTGGGCACCGGGGCTGGAGATCCGCGATCCCCGAGAAAACGCCGTACCACCCCCCGCGCTATTCCCTCGATTGCGCGCAGATGTGGTGACCGACACGGGGGACAACCTGGCGGACATGGGGCGCCGGACCTGGAAGCACGCCAAGTCGCACACGGGGAGGCTCGTGCAGTCCCCCCCATCGTACCTCAAGGGTCTCTTTGGTCGCGATCCAAAGTACGCTGGTGGCATGGCATGCCCGAAATGAACATCATGTGTGATCTCCGATTGCCAATGGCCACCTCCACGGACCACCTTGCAGGCGGAAGCGCAATCCAGGGCCCGAGCCTGACGAGGACGGAGACTCCTCGTCCAGCGCGGGGTCCCCGACCCGACGCAGCAGCCGACCCCTGCTAACCCGGCAACGATCGGACCAGCAACCTTGCTGTAGTTCCGATCCGTGATGACGGGCATTGCCGCCGCTCGATCCGCTTTGATGACTGTCTATTATTTGCGCGGAGCCCCCTCGGAACCCTACCCCGCTCTTGCAAGCCCCTTGCATCGGAGATCCTCGTGCGCCCGCCATGACCCCACTGGATTGCCCAACATCCTTCTTTATCGTGTAAAATGTGATTCCTCGGCTGCAATCGACTGGCCTTCGCTTCTGGCCCCAAGAGGGCTCGAACGTGCGGCAGCGAGGGCGCTGACACACCCAAGCCCTAGGGCTTTCAACGTCGGCTGCCAGGCCGGATAGGGGGATCGCCTCCTTTCCACCACCCACCTACGAGGGATTCGAGTCGGCTTCCAGCTCAGCTATTCGGCCGCGCCCCCGGCCCTGCAGACGTCCTCCAGTTTCCGAACAGGTCGCTCTCAGAACACCTGCCGCGGCTGCGATACGGCAGGCTCTCAAAGCGTCGAC
For B3, the “Fold increased (cDNA abundance)” value was 7.87.

B4: NRAMP metal transporter promoter/5′UTR: putative nitrogen-regulated promoter/5′UTR, SEQ ID NO: 56 (nucleic acid, listed as Prototheca moriformis)
DNA: ACTAATTGCAATCGTGCAGTAATCATCGATATGGTCACAAGTAGATCCCCTACTGACACCCTCTCGTACATGTAGGCAATGTCATCGGCGCCGTCCTGCTGACCGATGCCGACGTAGCAGAGCAGACCCGGGCCGATCTGGGATACGAGCCGGCCCTCCACCTGCGCTCGAGGTGGAATCAAGTAAATAACCAATACACTTTTCGACACCACACAGAGTTGCACGGACGGTGGCGTACCTCTACGCTCGCGCTCTTCACGCGCTGGACGACCGCACGCATGAGCCCGGGTGGCTTGGTCTGGGCTGCAAAAATGCACAACAAACAAGTATCAGACGCTCATGGATGCACACGCGCTCCCAAGCACGCTCAGACTAAATATTACAGTAGCTCGTATCTGATAAGATATCGAGACATACCGCTCAACTCACCCGCAAACTGCGCCCCGCCAGGTGATGCGCACAGGGCCCCACCATGCGATCCATCGCATCGCTCCTCGAGGGCGCTATCACGTGGCCGGAGAGCGTTCACAGCGTACGCCACTGTATCTGGGCGGTATGCGGTCCGTCAACATGGAGACAGATACCCGCACCACCACCTTGCAAGCTCTTCCATATTGGAAGTAGAAAATTGTAATTGTATCATCGCACGAGGGGCCAACTTGCCGTCGGCGAGCTGGGCGACGAACACCACCTGGACGTTGTCGAGACTCGCTCGTGCCGTGCGCCGGGCCGCTGGGTATCCAGACCGTCGCC
For B4, the “Fold increased (cDNA abundance)” value was 9.65.
